Where two headings read alike, the source gives them in different places.

In test [1] the target is T1, human PD-L1 on cells (human, UniProt Q9NZQ7 19-290).
T1 construct: also called hPD-L1; PD-L1 on IFNγ-induced SK-MEL-28 (SKMEL28) cells
Kind of test: flow cytometry of a dissociated CT26 hPD-L1 positive tumor 4 h after intraperitoneal injection of both labeled agents; same quadrant of the PD-L1 negative tumor: 3.97 [panel CT26, hPD-L1 positive]. (In general: A flow cytometer gives signals particle by particle.)

The target in test [2] is T2, recombinant biotinylated human PD-L1 ectodomain (IgV and IgC domains, residues 19-239) (human, UniProt Q9NZQ7 19-239, enzymatically biotinylated (BirA) on the biotin acceptor peptide).
T2 construct: also called biotinylated hPD-L1; biotinylated PD-L1; not shown: carboxy-terminal 8x histidine tag
In words: SPR, biotinylated PD-L1 on streptavidin chip.

In test [3] the target is T2, recombinant biotinylated human PD-L1 …. In words: surface plasmon resonance, biotinylated hPD-L1 immobilized on a streptavidin chip; column head 'PD-L1 affinity'. A general note: In SPR one partner is held on a chip, and binding of the other changes the refractive index at the surface.
The target in test [4] is T3, mouse PD-L1 on B16-F10 cells (mouse, UniProt Q9EP73 19-290).
T3 construct: whole, on cells; also called mPD-L1; PD-L1 on murine B16-F10 cells
In words: competition flow cytometry on murine B16-F10 cells, 100 nM PD-1 tetramer as competitor; wild-type hPD-1 on murine B16-F10 cells.

Test [5] deals with T2, recombinant biotinylated human PD-L1 …. In words: surface plasmon resonance, biotinylated hPD-L1 immobilized on a streptavidin chip; column head 'PD-L1 affinity'. This is another data set of the same source.
Test [6] has as its target T4, human PD-L2 displayed on yeast (residues 20-123) (human; S. cerevisiae, UniProt Q9BQ51 20-123).
T4 construct: also called yeast displaying hPD-L2; ectodomain of hPD-L2; not shown: Aga2 of S. cerevisiae (pYAL vector); linker and tag between not g
T4 sequence: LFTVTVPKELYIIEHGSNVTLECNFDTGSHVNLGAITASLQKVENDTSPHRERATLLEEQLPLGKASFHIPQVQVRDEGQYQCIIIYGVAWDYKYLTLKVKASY
In words: competition flow cytometry on yeast displaying the ectodomain of hPD-L2, 100 nM PD-1 tetramer as competitor; wild-type PD-1 on yeast displaying hPD-L2.

For test [7], the target named is T1, human PD-L1 on cells. In words: competition flow cytometry on IFNγ-induced SK-MEL-28 cells, 100 nM labeled PD-1 tetramer as competitor.
Test [8] concerns the target T4, human PD-L2 displayed on yeast …. In words: competition flow cytometry on yeast displaying human PD-L2; competitor probe: labeled native PD-1 streptavidin tetramer.
Test [9] concerns the target T5, human PD-L1 displayed on yeast (residues 19-132) (human; S. cerevisiae, UniProt Q9NZQ7 19-132).
T5 construct: also called yeast displaying human PD-L1; not shown: Aga2 of S. cerevisiae (pYAL vector); linker and tag between not g
In words: competition flow cytometry on yeast displaying human PD-L1; competitor probe: labeled native PD-1 streptavidin tetramer.

T2 sequence (Q9NZQ7 other isoform, or with tags, fused parts or gaps): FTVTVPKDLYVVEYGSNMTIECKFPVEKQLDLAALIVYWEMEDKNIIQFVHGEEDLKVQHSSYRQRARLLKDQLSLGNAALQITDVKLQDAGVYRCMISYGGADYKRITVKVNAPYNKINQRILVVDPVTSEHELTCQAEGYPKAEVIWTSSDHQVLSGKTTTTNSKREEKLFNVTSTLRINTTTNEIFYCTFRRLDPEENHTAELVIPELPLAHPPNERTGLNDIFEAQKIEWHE
T1 sequence (Q9NZQ7 19-290 limits assumed): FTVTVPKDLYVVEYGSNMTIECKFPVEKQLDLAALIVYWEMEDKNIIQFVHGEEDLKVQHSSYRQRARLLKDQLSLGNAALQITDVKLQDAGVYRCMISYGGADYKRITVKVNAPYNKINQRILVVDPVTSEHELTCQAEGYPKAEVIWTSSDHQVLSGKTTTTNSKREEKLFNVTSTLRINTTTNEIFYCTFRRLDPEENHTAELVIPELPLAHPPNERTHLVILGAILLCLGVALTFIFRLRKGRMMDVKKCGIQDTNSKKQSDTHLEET
T5 sequence (Q9NZQ7 19-132 limits assumed): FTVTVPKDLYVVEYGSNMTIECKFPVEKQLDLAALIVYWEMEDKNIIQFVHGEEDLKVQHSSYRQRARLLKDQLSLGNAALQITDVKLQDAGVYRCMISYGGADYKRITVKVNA
T3 sequence (Q9EP73 19-290): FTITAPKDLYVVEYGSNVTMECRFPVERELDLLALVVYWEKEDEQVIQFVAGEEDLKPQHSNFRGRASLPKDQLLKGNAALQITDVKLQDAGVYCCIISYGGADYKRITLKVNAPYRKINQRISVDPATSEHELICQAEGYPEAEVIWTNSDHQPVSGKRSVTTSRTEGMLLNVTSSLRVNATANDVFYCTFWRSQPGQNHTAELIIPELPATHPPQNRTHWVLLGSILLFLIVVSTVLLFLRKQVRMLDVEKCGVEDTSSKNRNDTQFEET

In [1], “AlexaFluor 488-conjugated anti-hPD-L1 antibody (clone 29E.2A3, BioLegend)” showed a percent of cells in the quadrant HAC 594 negative, Anti-hPD-L1 488 positive of 2.22%.

B1: wild-type human PD-1 IgV domain (residues 26-147), native PD-1 mimic polypeptide (receptor)
chain: DSPDRPWNPPTFSPALLVVTEGDNATFTCSFSNTSESFVLNWYRMSPSNQTDKLAAFPEDRSQPGQDCRFRVTQLPNGRDFHMSVVRARRNDSGTYLCGAISLAPKAQIKESLRAELRVTERHHHHHHHH
notes: Soluble monomer secreted from High Five insect cells; also called wild-type hPD-1; WT PD-1 monomer
The Kd is the constant that tells how readily two partners part at equilibrium. Usually IC50 stands for the midpoint of a concentration-inhibition curve. Turning to B1, the dissociation half-life in test [2] was less than 1 s. The Kd in [3] and in test [5] was 3880 nM each time. In addition, the IC50 in [4] was found to be 2600 nM; in [6], 2500 nM; in [7], 8200 nM.

B2: G2 4-2 (designed binder)
chain: DSPDRPWNPPTFSPALLVVTEGDNATFTCSFSNTSESFHIIWHRESPSGQTDTLAAFPEDRSQPGQDARFRVTQLPNGRDFHLSVVRARRNDSGTYVCGVISLAPKIQIKESLRAELRVTERHHHHHHHH
As to B2, the dissociation constant Kd in test [3] and in [5] was 0.222 nM throughout. Also, in test [8], the binding result is “no binding (tested: 1e-6 M (Log[Inhibitor (M)] = -6))”.

B3: G2 4-1 (Generation 2, clone 4-1) (designed binder)
chain: DSPDRPWNPPTFSPALLVVTEGDNATFTCSFSNTSESFHVVWHRESPSGQTDTLAAFPEDRSQPGPDARFRVTQLPNGRDFHLSVVRARRNDSGTYVCGAISLAPKIQIKESLRAELRVTERHHHHHHHH
For B3, the equilibrium dissociation constant (Kd) in test [3] and in test [5] was 0.267 nM each time. The binding result in [8] is “no binding (tested: 1e-6 M (Log[Inhibitor (M)] = -6))”.

B4: G1 4-1 (designed binder)
PD-1 variant IgV domain: DSPDRPWNPPTFSPALLVVTEGDNATFTCSFSNTSESFRLVWHRESPGYETDTLASFPEDRSTPLPDCRFRVTQLPNGRDFHMSVVRARRNDSGTYVCGAIAFHPVIQIKESLRAELRVTER
notes: also called Generation 1, clone 4-1
Regarding B4, in test [9], the “IC50 (read off the curve)” value was roughly 100 nM. Besides, the Kd in test [3] and in [5] was 7.78 nM each time.

B5: G1 4-4 (designed binder)
PD-1 variant IgV domain: DSPDRPWNPPTFSPALLVVTEGDNATFTCSFSNTSESFRLVWHRESPNNHAYTLALFPEDRSLPFPDCRFRVTQLPNGRDFHMSVVRARRNDSGTYICGAITFDPRIQIKESLRAELRVTER
notes: also called Generation 1, clone 4-4
Take B5: the “IC50 (read off the curve)” value in test [9] was roughly 100 nM. The dissociation constant Kd in test [3] and in test [5] was 10.7 nM throughout.

B6: G2 4-12 (designed binder)
PD-1 variant IgV domain: DSPDRPWNPPTFSPALLVVTEGDNATFTCSFSNTSESFHVVWHYESPSGQTDTLAAFPEDRSQPGQDARFRVTQLPNGRDFHLSVVRARRNDSGTYVCGIISLAPKIQIKESLRAELRVTER
notes: also called Generation 2, clone 4-12
For B6, the dissociation constant (Kd) in test [3] and in test [5] was 0.218 nM each time.

B7: G2 4-5 (designed binder)
PD-1 variant IgV domain: DSPDRPWNPPTFSPALLVVTEGDNATFTCSFSNTSESFHVVWHRESPSSQTDTLAAFPEDRSQPGPDARFRVTQLPNGRDFQLSVVRARRNDSGTYVCGVISLAPKIQIKESLRAELRVTER
notes: also called Generation 2, clone 4-5
For B7, the Kd in test [3] and in [5] was 0.196 nM throughout.

For the origin of these results see US20160039903A1 (Stanford University, published 2016).
